Data from patent US8026342B2, “Compositions and methods for binding sphingosine-1-phosphate” (Lpath, Inc., priority 2006, dated 2011).

Assays:
CNV lesions = assay: Sonepcizumab dose response in laser CNV model (fluorescein-labeled dextran); type: in vivo, mice
Method: Mice (n=10) received a single, bilateral intravitreal injection of escalating doses of sonepcizumab (0.085, 0.85, 1.7 or 5 μg/eye) or a high dose nonspecific (NS) antibody (3.0 μg/eye) one day prior to laser-induced rupture of Bruch's membrane. Fourteen days after laser rupture, mice were anesthetized and perfused with fluorescein-labeled dextran and choroidal flatmounts were prepared for analysis of CNV lesion size.
In this study, the effect of sonepcizumab dose amount and dose interval on CNV inhibition were examined using another validated method of quantifying CNV area in which animals were perfused with fluorescein-labeled dextran just before sacrifice. Sonepcizumab induced a dose-dependent reduction in the area of CNV resulting in a maximal inhibition of approximately 50%, at a dose of 5 μg/eye. This reduction was significant (p<0.0001 compared to non-specific antibody control using an unpaired t-test). In the dosing frequency study, similar efficacy was observed between groups treated with Sonepcizumab at a single timepoint (day 0) or at multiple timepoints (days 0 and 7) over the 14-day study.

[1] = GLP 28-day safety toxicology study of LT1009 in monkeys; type: in vivo
Method: In addition, blood was collected from recovery animals 48, 72, 144 and 240 hours following the end of the last dose. Parameters monitored during this study included mortality, clinical signs, body weight, qualitative evaluation of the food consumption, ophthalmology, electrocardiography, and clinical pathology (hematology, clinical chemistry, coagulation and urinalysis). Blood samples were also collected for immunophenotyping assessments, at pre-treatment, on the last day of treatment, and on days 35, 42 and at the end of the recovery period. At termination, a macroscopic examination was performed and selected organs were weighed. Histological evaluation of tissues was conducted on all animals.

[2] = LT1009 formulation stability study (visual inspection, syringeability, SE-HPLC); type: physicochemical; conditions: independent of antibody concentration
Method: Preferred formulations should not only stabilize the antibody, but also be tolerated by patients when injected. […] Additionally, three different storage temperatures (5° C., 25° C., and 40° C.) were also examined (representing actual, accelerated, and temperature stress conditions, respectively). Stability was assessed using representative samples taken from the various formulations at five different time points: at study initiation and after two weeks, 1 month, 2 months, and 3 months. At each time point, testing involved visual inspection, syringeability (by pulling through a 30-gauge needle), and size exclusion high performance liquid chromatography (SE-HPLC). Circular dichroism (CD) spectroscopy was also used to assess protein stability since above a certain temperature, proteins undergo denaturation, followed by some degree of aggregate formation. The observed transition is referred to as an apparent denaturation or “melting” temperature (Tm) and indicate the relative stability of a protein. […]
For a given time point, aliquots from each sample were subjected to a series of standard analyses, including visual inspection, syringeability, pH, SDS-PAGE (under both reducing and non-reducing conditions), SE-HPLC, and IEF. Protein concentrations were determined by UV spectroscopy (OD-280). […]

[3] = Competitive ELISA for specificity: lipid competitors against anti-S1P mAb binding to coated S1P; conditions: for recognition of ceramide-1-phosphate (C1P): competitor C1P; for cross-reactivity to lysophosphatidic acid (LPA): competitor LPA
Method: As described in Example 1, below, bound antibody was detected by a second antibody, specific for the mouse or human IgG, conjugated with HRP. Chromogenic reactions were measured and reported as optical density (OD). The concentration of lipids used for the competition is indicated on the X-axis.
For cross reactivity, a competitive ELISA was performed as described above, except for the following alterations. The primary incubation consisted of the competitor (S1P, SPH, LPA, etc.) and a biotin-conjugated anti-S1P mAb. Biotinylation of the purified monoclonal antibody was performed using the EZ-Link Sulfo-NHS-Biotinylation kit (Pierce). […] The competitor was prepared as follows: lipid stocks were sonicated and dried under argon before reconstitution in DPBS/BSA [1 mg/ml fatty acid free BSA (Calbiochem) in DPBS (Invitrogen 14040-133)]. Purified anti-S1P mAb was diluted as necessary in PBS/0.5% Triton X-100. Competitor and antibody solutions were mixed together so to generate 3 parts competitor to 1 part antibody. A HRP-conjugated streptavidin secondary antibody (Jackson Immunoresearch) was used to generate signal.
i. Specificity. The humanized variants were tested for specificity in a competitive ELISA assay (FIG. 1) against S1P and several other biolipids.

[4] = Thermochallenge stability of antibody variants (TM); type: physicochemical
Method: iii. Stability. The humanized variants were tested for stability after challenge at high temperature. The approximate midpoints of the thermal unfolding transitions (TM) were determined for every humanized variant by subjecting the supernatants to temperatures ranging from 60 to 74° C. […] The binding properties of each variant were determined before and after thermochallenge.

[5] = test system: ovarian cancer (OVCAR3) cells; assay: S1P-induced IL-8 release from ovarian cancer cells; type: cell-based, human; conditions: 1 uM S1P
Method: After 22 hours of incubation, cell supernatants were collected and IL-8 secretion was measured by ELISA using an R&D Systems Quantikine human CXCL8/IL-8 kit.
In parallel, all the variants were tested for their effects on S1P-induced cytokine release from cancer cells.

Molecule: LT1009: humanized anti-S1P IgG1/kappa mAb with Cys to Ala in HCDR2, light chain with 5 backmutations; SEQ ID NO: 31/32
- maximal inhibition of CNV area (CNV lesions; 5 μg/eye single intravitreal, 14 days): approximately 50%
- reduction in CNV lesion size greater than that observed with the VEGF-Trap (CNV lesions; comparison of two independent studies, VEGF-Trap 4.92 μg/eye (Saishin et al.)): 20 percentage points
- absolute number of T cells on Day 28 ([1]; 100 mg/kg): statistically significant decrease
- mean lymphocyte counts (+/-SD) after treatment ([1]; 100 mg/kg, males and females combined): 3.18+/−1.25 10^9 cells/L
- tolerability ([1]; 3, 10, 30 and 100 mg/kg every third day over 28 days): well tolerated
- No Observed Toxic Effect Level (NOTEL) ([1]; 30-minute i.v. infusion every third day for 28 days): 100 mg/kg
- conditions of greatest stability (SE-HPLC) [2]: most stable around pH 6 and 450 mM NaCl

B1: LT1002: murine anti-S1P monoclonal antibody, IgG1 kappa, from hybridoma clone 306D326.26 (antibody, listed as Mus sp., V domains shown)
VH: QAHLQQSDAELVKPGASVKISCKVSGFIFIDHTIHWMKQRPEQGLEWIGCISPRHDITKYNEMFRGKATLTADKSSTTAYIQVNSLTFEDSAVYFCARGGFYGSTIWFDFWGQGTTLTVS
VL: ETTVTQSPASLSMAIGEKVTIRCITTTDIDDDMNWFQQKPGEPPNLLISEGNILRPGVPSRFSSSGYGTDFLFTIENMLSEDVADYYCLQSDNLPFTFGSGTKLEIK
- Specificity (ELISA) [3]: High
- recognition of ceramide-1-phosphate (C1P) [3]: no antibody binding was observed
- recognition of ceramide-1-phosphate (C1P) ([3]; listed as SPHINGOMAB): did not recognize
- cross-reactivity with dihydrosphingosine-1-phosphate (DH-S1P) ([3]; competitor DH-S1P): did cross react
- recognition of dihydrosphingosine (DH-SPH) ([3]; competitor DH-SPH): did not recognize
- cross-reactivity to lysophosphatidic acid (LPA) [3]: no binding
- cross-reactivity to lysophosphatidic acid (LPA) ([3]; listed as SPHINGOMAB): no cross-reactivity
- recognition of phosphatidyl ethanolamine (PE) ([3]; competitor PE): did not recognize
- recognition of phosphatidyl serine (PS) ([3]; competitor PS): did not recognize
- recognition of sphingomyelin (SM) ([3]; competitor SM): did not recognize
- cross-reactivity with sphingosylphosphoryl choline (SPC) ([3]; competitor SPC): somewhat reduced
- cross-reactivity to sphingosine (SPH) ([3]; competitor SPH): no cross-reactivity
- TM (approximate midpoint of thermal unfolding transition) [4]: 65 °C
- reduction of S1P-induced IL-8 release [5]: reduced IL-8 release
